Assay results reported in patent US20080201790A1 (published 2008).

Columns and labels:
Assay in all cases: GST fusion pull-down on glutathione-Sepharose, anti-MEKK4 immunoblot
[1] = target: T1, GST-Cdc42 (GDP bound) on glutathione-Sepharose (UniProt P60953 1-191)
T1 construct: Loaded with GDP; not shown: glutathione S-transferase fusion partner
Procedure: (§1) Each GST fusion protein had GTPγs or GDP bound to the Cdc42, Rac or Ras moiety of the fusion protein. Following the incubation the beads were washed extensively and the bound proteins removed in SDS-Laemmli buffer and resolved by SDS-PAGE using 10% acrylamide gels.

[2] = target: T2, GST-Rac (GDP bound) on glutathione-Sepharose (UniProt P08515 1-218 = GST)
T2 construct: Loaded with GDP
Procedure: as §1

[3] = target: T3, GST fusion protein of Ha-Ras (GTPγS bound) on glutathione-Sepharose (UniProt P08515 1-218 = GST; P01112 1-189)
T3 construct: also called GST-Ras
Procedure: as §1

[4] = target: T4, GST fusion protein of Ha-Ras (GDP bound) on glutathione-Sepharose (UniProt P08515 1-218 = GST; P01112 1-189)
T4 construct: also called GST-Ras
Procedure: as §1

T2 sequence (P08515 whole entry): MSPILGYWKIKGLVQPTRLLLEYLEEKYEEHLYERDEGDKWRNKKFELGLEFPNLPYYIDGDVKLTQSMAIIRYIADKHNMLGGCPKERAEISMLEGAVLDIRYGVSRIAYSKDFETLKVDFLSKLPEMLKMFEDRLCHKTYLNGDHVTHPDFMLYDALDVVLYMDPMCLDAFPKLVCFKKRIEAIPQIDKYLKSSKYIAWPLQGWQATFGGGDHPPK
T1 sequence (P60953 whole entry, the tested form may be a part): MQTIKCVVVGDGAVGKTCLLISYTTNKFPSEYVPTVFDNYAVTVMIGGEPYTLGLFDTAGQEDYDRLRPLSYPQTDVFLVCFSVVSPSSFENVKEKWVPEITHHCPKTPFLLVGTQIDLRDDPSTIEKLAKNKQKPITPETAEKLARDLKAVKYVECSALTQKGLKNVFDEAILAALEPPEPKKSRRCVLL
T3 sequence (P08515 1-218, tags or fused parts left off): as the sequence (P08515 whole entry) above
T4 sequence (P08515 1-218, tags or fused parts left off): as the sequence (P08515 whole entry) above

Binder | percent of the MEKK4 bound in the presence of GTPγS [1] [%] | percent of the MEKK4 bound in the presence of GTPγS [2] [%] | binding result [3] | binding result [4]
MEKK4 from a Cos cell transient transfection (enzyme, also called MEKK4.2) MRDAIAEPVPPPALADTPAAAMEELRPAPPPQPEPDPECCPAARQECMLGESARKSMESDPEDFSDETNTETLYGTSPPSTPRQMKRLSAKHQRNSAGRPASRSNLKEKMNTPSQSPHKDLGKGVETVEEYSYKQEKKIRATLRTTERDHKKNAQCSFMLDSVAGSLPKKSIPDVDLNKPYLSLGCSNAKLPVSMPMPIARTARQTSRTDCPADRLKFFETLRLLLKLTSVSKKKDREQRGQENTAAFWFNRSNELIWLELQAWHAGRTINDQDLFLYTARQAIPDIINEILTFKVNYGSIAFSSNGAGFNGPLVEGQCRTPQETNRVGCSSYHEHLQRQRVSFEQVKRIMELLEYMEALYPSLQALQKDYERYAAKDFEDRVQALCLWLNITKDLNQKLRIMGTVLGIKNLSDIGWPVFEIPSPRPSKGYEPEDEVEDTEVELRELESGTEESDEEPTPSPRVPELRLSTDTILDSRSQGCVSRKLERLESEEDSIGWGTADCGPEASRHCLTSIYRPFVDKALKQMGLRKLILRLHKLMNGSLQRARVALVKDDRPVEFSDFPGPMWGSDYVQLSGTPPSSEQKCSAVSWEELRAMDLPSFEPAFLVLCRVLLNVIHECLKLRLEQRPAGEPSLLSIKQLVRECKEVLKGGLLMKQYYQFMLQEVLGGLEKTDCNMDAFEEDLQKMLMVYFDYMRSWIQMLQQLPQASHSLKNLLEEEWNFTKEITHYIRGGEAQAGKLFCDIAGMLLKSTGSFLESGLQESCAELWTSADDNGAADELRRSVIEISRALKELFHEARERASKALGFAKMLRKDLEIAAEFVLSASARELLDALKAKQYVKVQIPGLENLHVFVPDSLAEEKKIILQLLNAATGKDCSKDPDDVFMDAFLLLTKHGDRARDSEDGWGTWEARAVKIVPQVETVDTLRSMQVDNLLLVVMESAHLVLQRKAFQQSIEGLMTVRHEQTSSQPIIAKGLQQLKNDALELCNRISDAIDRVDHMFTLEFDAEVEESESATLQQYYREAMIQGYNFGFEYHKEVVRLMSGEFRQKIGDKYISFAQKWMNYVLTKCESGRGTRPRWATQGFDFLQAIEPAFISALPEDDFLSLQALMNECIGHVIGKPHSPVTAIHRNSPRPVKVPRCHSDPPNPHLIIPTPEGFSTRSVPSDARTHGNSVAAAAAVRAAATTAAGRPGPGGGDSVPAKPVNTAPDTRGSSVPENDRLASIAAELQFRSLSRHSSPTEERDEPAYPRSDSSGSTRRSWELRTLISQTKDSASKQGPIEAIQKSVRLFEERRYREMRRKNIIGQVCDTPKSYDNVMHVGLRKVTFKWQRGNKIGEGQYGKVYTCISVDTGELMAMKEIRFQPNDHKTIKETADELKIFEGIKHPNLVRYFGVELHREEMYIFMEYCDEGTLEEVSRLGLQEHVIRLYTKQITVAINVLHEHGIVHRDIKGANIFLTSSGLIKLGDFGCSVKLKNNAQTMPGEVNSTLGTAAYMAPEVITRAKGEGHGRAADIWSLGCVVIEMVTGKRPWHEYEHNFQIMYKVGMGHKPPIPERLSPEGKAFLSHCLESDPKIRWTASQLLDHAFVKVCTDEE | < 10 | < 10 |  | 
recombinant MEKK4 protein expressed in E. coli, residues 1261-1597 of the full length protein (enzyme, No tag is stated; also called truncated recombinant MEKK4) RRSWELRTLISQTKDSASKQGPIEAIQKSVRLFEERRYREMRRKNIIGQVCDTPKSYDNVMHVGLRKVTFKWQRGNKIGEGQYGKVYTCISVDTGELMAMKEIRFQPNDHKTIKETADELKIFEGIKHPNLVRYFGVELHREEMYIFMEYCDEGTLEEVSRLGLQEHVIRLYTKQITVAINVLHEHGIVHRDIKGANIFLTSSGLIKLGDFGCSVKLKNNAQTMPGEVNSTLGTAAYMAPEVITRAKGEGHGRAADIWSLGCVVIEMVTGKRPWHEYEHNFQIMYKVGMGHKPPIPERLSPEGKAFLSHCLESDPKIRWTASQLLDHAFVKVCTDEE | < 10 | < 10 | no binding | no binding
